The assay concerns the target T1, GST-Patj (Drosophila, UniProt Q9NB04 1-871).
T1 sequence (looked up): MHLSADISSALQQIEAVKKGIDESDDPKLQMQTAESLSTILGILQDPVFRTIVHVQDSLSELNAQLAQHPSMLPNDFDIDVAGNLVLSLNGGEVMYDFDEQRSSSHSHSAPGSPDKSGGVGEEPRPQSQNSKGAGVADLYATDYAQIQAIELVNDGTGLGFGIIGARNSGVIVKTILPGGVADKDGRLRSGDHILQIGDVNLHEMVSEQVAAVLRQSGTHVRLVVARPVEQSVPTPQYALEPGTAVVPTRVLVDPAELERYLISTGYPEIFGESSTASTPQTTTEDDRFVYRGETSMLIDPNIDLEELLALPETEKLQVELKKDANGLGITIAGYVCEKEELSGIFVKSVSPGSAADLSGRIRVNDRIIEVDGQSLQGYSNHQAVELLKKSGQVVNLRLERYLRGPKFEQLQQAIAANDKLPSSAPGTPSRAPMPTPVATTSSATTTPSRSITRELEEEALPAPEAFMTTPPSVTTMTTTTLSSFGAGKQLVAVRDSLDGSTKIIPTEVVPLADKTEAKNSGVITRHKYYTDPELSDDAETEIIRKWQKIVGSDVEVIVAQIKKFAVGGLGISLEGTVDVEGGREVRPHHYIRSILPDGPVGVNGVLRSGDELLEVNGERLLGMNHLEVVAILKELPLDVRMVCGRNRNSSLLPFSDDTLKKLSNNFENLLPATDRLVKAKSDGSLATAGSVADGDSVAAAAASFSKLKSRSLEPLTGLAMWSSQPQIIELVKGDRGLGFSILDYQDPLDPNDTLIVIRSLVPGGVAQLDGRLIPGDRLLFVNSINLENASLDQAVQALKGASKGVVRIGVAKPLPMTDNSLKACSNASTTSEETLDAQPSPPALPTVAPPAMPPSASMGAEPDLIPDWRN
The assay is described as follows: pull-down.

We go through 1 molecule from paper PMC2172211 (The Journal of Cell Biology, 2004).

B1: His-tagged DaPKC (enzyme, Drosophila, UniProt A1Z9X0 1-606, looked up)
chain: MQKMPSQILNDGSSVSLNSASMNMANTPNSITVKTAYNGQIIITTINKNISYEELCYEIRNICRFPLDQPFTIKWVDEENDPCTISTKMELDEAIRLYEMNFDSQLVIHVFPNVPQAPGLSCDGEDRSIYRRGARRWRKLYRVNGHIFQAKRFNRRAFCAYCQDRIWGLGRQGFKCIQCKLLVHKKCHKLVQKHCTDQPEPLVKERAEESSDPIPVPLPPLPYEAMSGGAEACETHDHAHIVAPPPPEDPLEPGTQRQYSLNDFELIRVIGRGSYAKVLMVELRRTRRIYAMKVIKKALVTDDEDIDWVQTEKHVFETASNHPFLVGLHSCFQTPSRLFFVIEFVRGGDLMYHMQRQRRLPEEHARFYAAEISLALNFLHEKGIIYRDLKLDNVLLDHEGHIKLTDYGMCKEGIRPGDTTSTFCGTPNYIAPEILRGEDYGFSVDWWALGVLLYEMLAGRSPFDLAGASENPDQNTEDYLFQVILEKTIRIPRSLSVRAASVLKGFLNKNPADRLGCHRESAFMDIVSHPFFKNMDWELLERKQVTPPFKPRLDSDRDLANFPPEFTGEAVQLTPDDDHVIDNIDQSEFEGFEYVNPLLMSLEDCV
In the case of B1, the binding result is listed as “binds”.
